For assay [1], the target named is T1, human IL-1β (human, UniProt P01584 117-269).
T1 construct: also called hu IL-1β; huIL-1β
Kind of assay: MSD-SET (solution equilibrium titration, electrochemiluminescence), 37° C., 72 h equilibrium. The procedure: MSD (Meso Scale Discovery) electrochemiluminescence assay is utilized to measure the affinity of Antibody I, Antibody II, Antibody III, and Canakinumab to human IL-1β. First, the equilibrium mixture of antibodies and human IL-1β is set up; in the mixture the antibody concentrations are kept constant at 1 pM, 10 pM, and 100 pM whereas the ligand is titrated in the concentration ranging from 0.9 nM to 0.00004 nM (2.5 times dilution between concentrations). The equilibrium mixture is set up in sealed non-binding 96-well plate at 37° C. for 72 hours.
MSD Gold Streptavidin plates are used to detect the free antibodies in the equilibrium mixture. The MSD plates are first blocked with blocking buffer (PBS+1% BSA) for 1 hour on a shaker set at 800 rpm and then washed 3 times with washing buffer PBST (PBS+0.05% Tween 20). The plates are coated with biotinylated human IL-1β followed by 3× washing with PBST. The equilibrium mixtures are added to the coated plate, incubated at room temperature with shaking for 2.5 mins and immediately washed 3× with PBST. The goat anti-human Sulfo-TAG antibody is added to the plate and incubated at room temperature for 1 hour with shaking. After three more washes, MSD Read Buffer at 1:2 concentration diluted in MilliQ water is added to the wells. Immediately afterwards, the plates are read using an MSD Sector Imager SI6000 instrument.

The target in assay [2] is T1, human IL-1β. The assay is described as follows: cell-based or functional assay.

In general, Kd refers to a measure of binding affinity in units of concentration. A low value points to a tighter complex.

B1: Canakinumab (antibody, human IgG4 S228P, kappa, F234A L235A, V domains shown)
VH: QVQLVESGGGVVQPGRSLRLSCAASGFTFSVYGMNWVRQAPGKGLEWVAIIWYDGDNQYYADSVKGRFTISRDNSKNTLYLQMNGLRAEDTAVYYCARDLRTGPFDYWGQGTLVTVSS
VL: EIVLTQSPDFQSVTPKEKVTITCRASQSIGSSLHWYQQKPDQSPKLLIKYASQSFSGVPSRFSGSGSGTDFTLTINSLEAEDAAAYYCHQSSSLPFTFGPGTKVDIKR
notes: Comparator
Consider B1, for which the Kd with human IL-1β [1] turned out to be 0.0135 nM. For the same molecule, in the assay with human IL-1β [2], the “Avg. IC50, neutralization of human IL-1β (4 pM) in HEK-Blue IL-1β SEAP reporter cells” value was 26 pM.

The values are drawn from US20250042990A1 (Eli Lilly, published 2025).
